1 substance from IntAct's records for PubMed 21821029 can be followed below.

In this assay the target is aurka_human AURKA (UniProt O14965).
Chain of aurka_human AURKA (O14965 whole entry): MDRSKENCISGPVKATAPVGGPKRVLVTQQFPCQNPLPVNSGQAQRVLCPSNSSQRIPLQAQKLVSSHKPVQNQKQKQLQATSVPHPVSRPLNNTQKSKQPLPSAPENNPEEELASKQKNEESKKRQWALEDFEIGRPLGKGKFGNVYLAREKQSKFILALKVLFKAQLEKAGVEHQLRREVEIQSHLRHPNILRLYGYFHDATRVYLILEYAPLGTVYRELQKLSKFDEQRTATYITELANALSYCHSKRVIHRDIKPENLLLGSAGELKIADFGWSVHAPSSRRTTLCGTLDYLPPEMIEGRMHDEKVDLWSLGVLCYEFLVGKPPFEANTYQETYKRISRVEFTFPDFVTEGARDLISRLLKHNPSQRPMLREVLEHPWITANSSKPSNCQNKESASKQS

As for “Heterogeneous nuclear ribonucleoprotein K (Homo sapiens), P61978-2 S379A”, the “effect of a mutation on the interaction” value is “disrupting interaction”.
